Experimental data: publication PMC12700558, “Aggregation shifts amyloid-β peptides from synaptogenic to synaptotoxic” (The Journal of Clinical Investigation, 2025)
“Also recorded” adds a separate entry of the source.

Experiments:
[1] = test system: human neurons cocultured with mouse glia; conditions: chronic exposure DIV6-DIV45, neurotoxic doses
Excerpt: The Incucyte Cytotox Green assay, finally, monitors membrane integrity using a DNA dye that gains access to nuclei only when the plasma membrane is compromised (Supplemental Figure 1, F and G).
To obtain a live cell read out of neuronal death, we monitored loss of plasma-membrane integrity with Incucyte Cytotox Green reagent (Sartorius), a cell-impermeant DNA dye that fluoresces upon binding to nuclear DNA once the membrane is breached ([48]). A 250× stock supplied by the manufacturer was thawed on ice and diluted into prewarmed culture medium to a final working concentration of 250 nM immediately before use. For each assay plate, half the medium was removed and replaced with dye-containing medium so that the final dye concentration and vehicle composition were identical across all conditions. For validation, DIV30 cocultures were challenged for 4 hours with 200 μM H2O2; fluorescence images were acquired immediately thereafter. […] Dye was present for 2 hours before imaging to allow equilibrium without inducing additional stress. Ten nonoverlapping fields per well were captured with the 20× objective using green fluorescence channels. Exposure settings were kept constant within an experiment. Images were processed with ImageJ. A top-hat background subtraction was applied to the green channel, and a fluorescence threshold was kept constant across batches. […]

[2] = Native PAGE and immunoblotting of the aggregation state of Aβ peptides; format: physicochemical; conditions: stock solutions incubated at 37°C for 60 or 90 minutes, native PAGE, immunoblot 4G8 / Abcam 126892
Method: To assess the aggregation state of Aβ peptides in stock solutions, we performed native polyacrylamide gel electrophoresis (PAGE) followed by immunoblotting. Stock solutions of Aβ peptides were incubated at 37°C for 1.5 and/or 1 hours to promote aggregate formation. After incubation, samples were diluted 1:2 with native PAGE sample buffer to maintain nondenaturing conditions. The samples were loaded onto 4%–15% gradient polyacrylamide Criterion gels (Bio-Rad), which allow for the separation of proteins across a wide range of molecular weights under native conditions. Electrophoresis was conducted using Tris-Glycine buffer at 4°C for 3 hours to preserve the native structure of the peptide aggregates during separation. A constant voltage appropriate for native PAGE was applied throughout the run ([49]). Following electrophoresis, proteins were transferred onto Nitrocellulose (0.45 μm) membranes using a semidry transfer apparatus optimized for proteins of mixed molecular weights. The transfer was performed according to the manufacturer’s instructions, ensuring efficient transfer of both low and high molecular weight species. Membranes were blocked with 5% BSA (GeminiBio) in Tris-buffered saline with 0.1% Tween-20 (TBST) at room temperature for 1 hour to prevent nonspecific antibody binding. […] Blots were imaged using the Odyssey Infrared Imager CLX and analyzed using Image Study 5.2.5. […]

[3] = test system: human neurons cocultured with mouse glia (entire glia/neuron coculture)
Method: The MTT assay employs yellow tetrazolium dye that is reduced to a purple formazan crystal by viable cells with active metabolism ([21]). Because it measures metabolic activity in all cells, this assay serves as a broad cytotoxicity read out for the entire glia/neuron coculture system. The amount of formazan produced is then measured because it is directly proportional to the number of viable cells ([21]) (Figure 1B and Supplemental Figure 1A). The nuclear localization TdTomato assay, conversely, enables monitoring of cellular stress by tracking the localization of fluorescent TdTomato fused to a nuclear localization signal. Under healthy conditions, the nuclear localization signal directs the NLS-TdTomato to the nucleus. When toxicity in a cell causes a reduction in ATP levels, NLS-TdTomato leaks out of the nucleus into the cytoplasm, which we scored as an index of toxicity (Figure 1, C and D, and Supplemental Figure 1, B–D). Because the reporter is expressed only in neurons, this assay specifically assesses neurotoxicity within the coculture. We developed this assay because it can be performed on live cells and reflects decreases in ATP levels in these cells. The NLS-TdTomato assay was validated by treating cultures with 5% DMSO and 200 μM hydrogen peroxide, 2 well-established neurotoxins. […]

-.DAEFRHDSGYEVHHQKLVFFAGDVGSNKGAIIGLMVGGVVI.A [Aβ42^arctic]
Incucyte Cytotox Green assay, labeled nuclei (in words) [1]: modest but consistent rise in labeled nuclei
Aggregation state in native gel analyses (in words) [2]: completely aggregated even at lower concentrations; also recorded: quantitatively aggregated
Concentration at which neurotoxic, MTT assay [3]: greater than or equal to 0.025 μM
